The values below come from patent publication US20260276625A1, “SCREENING METHOD FOR COMPOUND INDUCING AUTOPHAGY” (TOHOKU UNIVERSITY, priority 2023, published 2026).

In test [1] the target is LgBiT-p62 (p62 fused at its N-terminus to the Large BiT luciferase fragment; expressed from pLgBiT-p62) (not stated (cDNA from total RNA of HeLa cells)) (UniProt Q13501). In words: NanoBiT split-luciferase complementation in HeLa cells co-transfected with pLgBiT-p62 and pSmBiT-DDX5; told of each of AUTAC2-2G, AUTAC4-2G, 8-nitro-cGMP and FBnG at 10 uM.
Test [2] shares this target. In words: NanoBiT split-luciferase complementation in HeLa cells co-transfected with pLgBiT-p62 and pSmBiT-DDX5; told of each of compounds 5 to 33 at 10 uM, 24 h.
Test [3] has the same target. In words: NanoBiT split-luciferase complementation in HeLa cells co-transfected with pLgBiT-p62 and pSmBiT-DDX5, treated with 10 uM AUTAC2-2G, AUTAC4-2G, 8-nitro-cGMP or FBnG; read 10 min after start of measurement (FIG. 1).
Test [4] shares this target. The experiment in a line: NanoBiT split-luciferase complementation in HeLa cells co-transfected with pLgBiT-p62 and pSmBiT-DDX5, treated with 10 uM of compounds 5 to 33 or AUTAC2-2G; read 10 min after start of measurement (FIG. 2).

Where only a bound is given, the exact number is not on record here.

“SmBiT-DDX5 (DDX5, DEAD box protein 5, fused at its N-terminus to the Small BiT luciferase fragment; expressed from pSmBiT-DDX5) (from UniProt P17844 1-614)”: the emission intensity, fold over cells treated with DMSO (times (vs DMSO-treated cells)) in test [1] and in test [2] was greater than 1000 in each case. In addition, the emission intensity (NanoBiT luminescence) in test [3] is 1e+07; in test [4], greater than 1e+07.
